For the test, the target named is acetylcholine receptor (Homo sapiens, UniProt P02708). As to the kind of experiment: SPR binding affinity (RU) of optimized 5mer/6mer/7mer peptides, Examples 6-7. The following applies: SPR, peptides tested at 10 μM; 5mer Top sequence. How it is done: Based on the frequencies of occurrence of the top 7 amino acids from Table 7 in Example 5, 600 peptides comprising these amino acids (top combinations) and those comprising the 13 less frequently occurring amino acids (bottom combinations) were synthesized for each series of 5mer, 6mer-1, and 6mer-2. The binding affinity of each sequence for the acetylcholine receptor was measured using Surface Plasmon Resonance (SPR) analysis method. The peptides were tested at a concentration of 10 μM. Additionally, the average binding affinities of the top and bottom combinations in each series are depicted in FIGS. 5-7.
acetylcholine receptor, sequence (P02708 21-457): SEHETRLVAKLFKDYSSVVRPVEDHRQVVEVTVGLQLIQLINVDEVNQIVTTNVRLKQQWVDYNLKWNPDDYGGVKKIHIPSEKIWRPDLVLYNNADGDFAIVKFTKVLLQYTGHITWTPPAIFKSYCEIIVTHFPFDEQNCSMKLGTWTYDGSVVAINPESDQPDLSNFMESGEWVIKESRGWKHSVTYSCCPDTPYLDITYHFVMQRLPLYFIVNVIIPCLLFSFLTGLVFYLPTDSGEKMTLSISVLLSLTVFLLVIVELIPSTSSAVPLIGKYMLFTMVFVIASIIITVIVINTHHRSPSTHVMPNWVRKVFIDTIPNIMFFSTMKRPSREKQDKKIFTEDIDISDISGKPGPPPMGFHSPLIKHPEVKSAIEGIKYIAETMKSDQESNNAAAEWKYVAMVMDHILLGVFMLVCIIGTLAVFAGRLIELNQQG
Representative peptides identified in Example 6, two in each library, including 5mers (73, 311) and 6mers-1 (43, 210) and 6mers-2 (136, 233), were compared with the pre-optimized 6mer, 5mer-ND, and Synake.
On the technique in general: In SPR one partner is held on a chip, and binding of the other changes the refractive index at the surface.

The record followed here is patent US20250011363A1, “OPTIMIZED SHORTENED PEPTIDE THAT BINDS TO ACETYLCHOLINE RECEPTOR, AND USE THEREOF” (SKINMED CO., LTD., priority 2021, published 2025).

Regarding 5mer-1 (RVQCK), the Binding affinity is given as 54 Ru. Turning to 5mer-2 (KRISR), the Binding affinity came to 80 Ru. Turning to 5mer-3 (KRVLK), the Binding affinity stood at 66 Ru. 5mer-4 (KRFLR): the Binding affinity worked out at 58 Ru. Turning to 5mer-5 (KLFLR), the Binding affinity is listed as 54 Ru. With 5mer-6 (RWQQK), the Binding affinity stood at 61 Ru. For the substance 5mer-7 (RQLTK), the Binding affinity worked out at 54 Ru.

With 5mer-8 (RQRSR), the Binding affinity was found to be 51 Ru.

As to 5mer-9 (RGVQR), the Binding affinity amounted to 77 Ru. Turning to 5mer-10 (RVQRR), the Binding affinity came to 55 Ru.

5mer-11 (KQRLR): the Binding affinity amounted to 84 Ru. For 5mer-12 (RVFLR), the Binding affinity was 70 Ru. For the substance 5mer-13 (RLISK), the Binding affinity is 52 Ru. For the substance 5mer-14 (RWLCK), the Binding affinity is recorded as 63 Ru.

Take 5mer-15 (KGVCK): the Binding affinity is reported as 75 Ru. In the case of 5mer-16 (KLYTK), the Binding affinity is 66 Ru. As for 5mer-17 (KRIYK), the Binding affinity is 70 Ru.

As for 5mer-18 (RQLRR), the Binding affinity turned out to be 69 Ru.

Turning to 5mer-19 (KRFQR), the Binding affinity was 72 Ru. Consider 5mer-20 (RGRYK), for which the Binding affinity was determined as 78 Ru. For 5mer-21 (KWFTR), the Binding affinity is 63 Ru. As for 5mer-22 (RQQLK), the figure is 66 Ru; as for 5mer-23 (KWLYK), 86 Ru.

For the substance 5mer-24 (KSQCR), the Binding affinity is reported as 67 Ru. With 5mer-25 (KVVYK), the Binding affinity turned out to be 60 Ru. Turning to 5mer-26 (RQQQR), the Binding affinity was 65 Ru. As for 5mer-27 (KGYLR), the Binding affinity turned out to be 67 Ru. With 5mer-28 (RLLSR), the Binding affinity worked out at 74 Ru. As to 5mer-29 (KGFCR), the Binding affinity turned out to be 63 Ru. Consider 5mer-30 (KSQLR), for which the Binding affinity is reported as 70 Ru. As to 5mer-31 (RRLQR), the Binding affinity is 65 Ru. As for 5mer-32 (RQLSR), the figure is 75 Ru; as for 5mer-33 (RRISK), 59 Ru. As for 5mer-34 (KRIRK), the figure is 82 Ru. As for 5mer-35 (RWQYK), the figure is 80 Ru; as for 5mer-36 (RRLQK), 60 Ru; as for 5mer-37 (RRLSR), 72 Ru. 5mer-38 (RGYCK): the Binding affinity was 53 Ru. In the case of 5mer-39 (KQVSR), the Binding affinity stood at 67 Ru. As for 5mer-40 (KSVCR), the Binding affinity amounted to 67 Ru.

As for 5mer-41 (KVISK), the Binding affinity is given as 82 Ru.

For 5mer-42 (RQRLR), the Binding affinity stood at 83 Ru. As to 5mer-43 (KSFYR), the Binding affinity is 53 Ru. On to 5mer-44 (RSRTR), for which the Binding affinity came to 59 Ru. In the case of 5mer-45 (RVFQR), the Binding affinity worked out at 86 Ru. With 5mer-46 (KRQCK), the Binding affinity was found to be 76 Ru. With 5mer-47 (KGVRR), the Binding affinity is listed as 70 Ru. As for 5mer-48 (RVYLR), the Binding affinity came to 62 Ru. As for 5mer-49 (KWRTR), the figure is 62 Ru; as for 5mer-50 (KLLCR), 63 Ru; as for 5mer-51 (RSLQR), 70 Ru. In the case of 5mer-52 (RQQYK), the Binding affinity came to 50 Ru. As for 5mer-53 (RLVTR), the figure is 50 Ru; as for 5mer-54 (KWLQR), 66 Ru; as for 5mer-55 (RRFSR), 58 Ru. As for 5mer-56 (KRFCK), the figure is 59 Ru; as for 5mer-57 (KQLYR), 73 Ru; as for 5mer-58 (KWVSK), 75 Ru. As for 5mer-59 (KLQYR), the figure is 68 Ru; as for 5mer-60 (RLFTK), 86 Ru; as for 5mer-61 (RLILK), 66 Ru. Regarding 5mer-62 (KQLTK), the Binding affinity was 70 Ru. On to 5mer-63 (RLLRK), for which the Binding affinity stood at 86 Ru. As for 5mer-64 (KVVTR), the figure is 76 Ru; as for 5mer-65 (RQIRR), 67 Ru. 5mer-66 (KRLLR): the Binding affinity was found to be 80 Ru.

Consider 5mer-67 (RQLYR), for which the Binding affinity is given as 86 Ru. Take 5mer-68 (RGFYK): the Binding affinity stood at 82 Ru.

In the case of 5mer-69 (RSRSR), the Binding affinity is 50 Ru. On to 5mer-70 (RLLQR), for which the Binding affinity is 69 Ru. Turning to 5mer-71 (KLQSK), the Binding affinity amounted to 68 Ru. 5mer-72 (KLYRR): the Binding affinity is given as 50 Ru. As for 5mer-74 (RQITK), the figure is 87 Ru; as for 5mer-75 (KVQTK), 63 Ru. As to 5mer-76 (RGYRR), the Binding affinity was determined as 80 Ru. In the case of 5mer-77 (KWRQK), the Binding affinity was determined as 74 Ru. Regarding 5mer-78 (KVICK), the Binding affinity is listed as 79 Ru. As for 5mer-79 (RWFLR), the figure is 82 Ru. On to 5mer-80 (KSRTR), for which the Binding affinity worked out at 83 Ru. 5mer-81 (RGIYR): the Binding affinity was 79 Ru.

With 5mer-82 (RQRYK), the Binding affinity came to 84 Ru. As to 5mer-83 (KGFSR), the Binding affinity is given as 64 Ru. As to 5mer-84 (RVVRR), the Binding affinity stood at 67 Ru. For the substance 5mer-85 (KGVLK), the Binding affinity was determined as 74 Ru.

With 5mer-86 (RRLCK), the Binding affinity amounted to 55 Ru. As for 5mer-87 (RQITR), the figure is 55 Ru; as for 5mer-88 (RRVQK), 73 Ru. For 5mer-89 (KRITK), the Binding affinity is on record as 77 Ru. Take 5mer-90 (RWYTK): the Binding affinity is given as 86 Ru.

For the substance 5mer-91 (RQIQK), the Binding affinity is recorded as 55 Ru. Turning to 5mer-92 (RVRLK), the Binding affinity amounted to 62 Ru.

Turning to 5mer-93 (KWVYR), the Binding affinity is recorded as 79 Ru. As for 5mer-94 (RWFQR), the figure is 50 Ru. In the case of 5mer-95 (RGRRK), the Binding affinity stood at 68 Ru. For the substance 5mer-96 (RVLYR), the Binding affinity was 55 Ru.

As for 5mer-97 (KRQLR), the Binding affinity came out at 52 Ru. Consider 5mer-98 (KWYCK), for which the Binding affinity was found to be 68 Ru. As for 5mer-99 (RWICK), the figure is 58 Ru; as for 5mer-100 (KVIRK), 80 Ru. As for 5mer-101 (RQQYR), the figure is 55 Ru. In the case of 5mer-102 (RGFSK), the Binding affinity stood at 82 Ru.

Consider 5mer-103 (RWFLK), for which the Binding affinity was 62 Ru. As for 5mer-104 (RVVLK), the figure is 74 Ru.

Take 5mer-105 (RGQQR): the Binding affinity was 50 Ru. Turning to 5mer-106 (KLLQR), the Binding affinity amounted to 78 Ru. Regarding 5mer-107 (RWVSR), the Binding affinity is 56 Ru. With 5mer-108 (KWQLK), the Binding affinity stood at 77 Ru.

With 5mer-109 (RLQCR), the Binding affinity was found to be 68 Ru. For 5mer-110 (KRRLK), the Binding affinity is 76 Ru. In the case of 5mer-111 (KSVLK), the Binding affinity is 85 Ru. As for 5mer-112 (KRYYR), the figure is 58 Ru; as for 5mer-113 (KRLRK), 79 Ru. 5mer-114 (KRQRR): the Binding affinity is 82 Ru. Consider 5mer-115 (RWLLR), for which the Binding affinity is 75 Ru. 5mer-116 (RWRSK): the Binding affinity stood at 64 Ru. For 5mer-117 (RSVYK), the Binding affinity is recorded as 69 Ru. As for 5mer-118 (RVICK), the Binding affinity is 87 Ru. Consider 5mer-119 (KQIRK), for which the Binding affinity worked out at 60 Ru. Turning to 5mer-120 (RQILK), the Binding affinity is reported as 68 Ru. As for 5mer-121 (RQVTR), the figure is 73 Ru. For the substance 5mer-122 (RSYQK), the Binding affinity is given as 78 Ru. In the case of 5mer-123 (KWIRR), the Binding affinity was found to be 53 Ru. As to 5mer-124 (KGFSK), the Binding affinity was found to be 58 Ru.

As to 5mer-125 (RVRQK), the Binding affinity stood at 67 Ru. Regarding 5mer-126 (RGVTK), the Binding affinity came out at 61 Ru. For the substance 5mer-127 (RWVTK), the Binding affinity worked out at 86 Ru. On to 5mer-128 (RGVCR), for which the Binding affinity came out at 56 Ru. For the substance 5mer-129 (KSLLK), the Binding affinity amounted to 63 Ru. As for 5mer-130 (RRFRK), the figure is 80 Ru; as for 5mer-131 (KLRRR), 72 Ru; as for 5mer-132 (RVRCK), 83 Ru.

With 5mer-133 (KGQRK), the Binding affinity came out at 84 Ru. For the substance 5mer-134 (RQFSK), the Binding affinity was determined as 61 Ru. Consider 5mer-135 (RRLLR), for which the Binding affinity is on record as 64 Ru. For 5mer-136 (RRIYK), the Binding affinity is reported as 75 Ru.

With 5mer-137 (KGVSK), the Binding affinity is 77 Ru. On to 5mer-138 (RQRCR), for which the Binding affinity came to 71 Ru. With 5mer-139 (RLQYK), the Binding affinity turned out to be 73 Ru.

On to 5mer-140 (KWRLR), for which the Binding affinity turned out to be 69 Ru.
